The text below walks through data of patent US20230270824A1, “INTERFERON-BASED CANCER TREATMENT METHOD AND PHARMACEUTICAL COMPOSITION” (XIAMEN AMOYTOP BIOTECH CO., LTD., priority 2019, published 2023).

“And” between values parts separate entries of the source, which are not always exact repeats. Equal values may be shown once.

Data set [1] is described as follows: Pharmacokinetic study of single subcutaneous injection in healthy BALB/c mice (double-antibody sandwich ELISA). On the procedure:
6-8 weeks old, SPF grade BALB/c mice (N=60, with fifty-fifty of male and female mice) were injected with a single injection of 1 μg/mouse PEG-mIFN-α4 subcutaneously on the back of the neck. Plasma samples were collected before the injection (0 h) and after the injection at 15 h, 24 h, 36 h, 48 h, 72 h, 96 h, 120 h, 168 h, 216 h, 264 h, 312 h, to determine the blood concentration. Phoenix WinNonlin 6.4 software was used to calculate the pharmacokinetic parameters.
(In an ELISA, binding on a coated surface is turned into a signal by an enzyme label.)

Data set [2] concerns transplanted colorectal cancer CT26. Nature of the data set: Interferon combined with gemcitabine, transplanted colorectal cancer CT26 in mice (Example 7). It is filed as in vivo, BALB/c mice. To be noted: 110 days observation. Here is the method:
In this example, a comparative study on the efficacy of PEG-mIFN-α4 intermittent administration (once every 48 hours for three consecutive times, then drug withdrawal for 144 hours; for 11 rounds), PEG-mIFN-α4 continuous administration (once every 48 hours for 55 consecutive times), PEG-mIFN-α4 in combination with gemcitabine (PEG-mIFN-α4: once every 48 hours for three consecutive times, then drug withdrawal for 240 hours, 8 rounds; gemcitabine: once a week) on transplanted colorectal cancer CT26 in mice was performed.
The anticancer agent is Gemcitabine (Jiangsu HAOSEN Pharmaceutical).
(§1) On the day when the tumor was inoculated, they were randomly divided into PEG-mIFN-α4 continuous administration group (N=24, female 12, male 12), PEG-mIFN-α4 intermittent administration group (N=24, female 12, male 12), the normal saline control group (N=24, female 12, male 12), the gemcitabine only group (N=24, female 12, male 12), and PEG-mIFN-α4 combined with gemcitabine group (N=24, female 12, male 12).
Gemcitabine was injected intraperitoneally, 60 mg/kg. […] For the PEG-mIFN-α4 intermittent administration group, PEG-mIFN-α4 was administered once every 48 hours for three consecutive times, then drug withdrawal for 144 hours; for 11 rounds. For the PEG-mIFN-α4 continuous administration group, PEG-mIFN-α4 was administered once every 48 hours. For the PEG-mIFN-α4 combined with gemcitabine group, PEG-mIFN-α4 was administered once every 48 hours for three consecutive times, then drug withdrawal for 240 hours; for 8 rounds; and gemcitabine was administered once a week. For the gemcitabine only group, gemcitabine was administered once a week. For the saline control group, equal volume of saline was administered.
Survival analysis was performed for all groups to compare the differences between groups.

The subject of data set [3] is transplanted breast cancer 4T1. In words: Interferon combined with gemcitabine, transplanted breast cancer 4T1 in mice (Example 9). It is filed as in vivo, BALB/c mice. The following applies: 53 days after tumor inoculation. Here is the method: In this example, a comparative study on the efficacy of PEG-mIFN-α4 intermittent administration (once every 48 hours for 3 consecutive times, then drug withdrawal for 144 hours; for 5 rounds), PEG-mIFN-α4 continuous administration (once every 48 hours for 25 consecutive times), PEG-mIFN-α4 in combination with gemcitabine (PEG-mIFN-α4: once every 48 hours for 3 consecutive times, then drug withdrawal for 240 hours, 4 rounds; gemcitabine: once a week) on transplanted breast cancer 4T1 in mice was performed.
as §1
For the PEG-mIFN-α4 intermittent administration group, PEG-mIFN-α4 was administered once every 48 hours for 3 consecutive times, then drug withdrawal for 144 hours; for 5 rounds. For the PEG-mIFN-α4 continuous administration group, PEG-mIFN-α4 was administered once every 48 hours. For the PEG-mIFN-α4 combined with gemcitabine group, PEG-mIFN-α4 was administered once every 48 hours for 3 consecutive times, then drug withdrawal for 240 hours; for 4 rounds; and gemcitabine was administered once a week. For the gemcitabine only group, gemcitabine was administered once a week. For the saline control group, equal volume of saline was administered. Gemcitabine was injected intraperitoneally, 60 mg/kg.
SAS9.4 software was used for comparing the difference in mortality, and the statistical tests were all two-sided tests.

Data set [4] deals with mouse fibroblast/encephalomyocarditis virus (L929/EMCV). In words: Specific activity by mouse fibroblast/encephalomyocarditis virus (L929/EMCV) cytopathic inhibition method. To be noted: stock solution; commercial mIFN-α4 (R&D) as the standard. It is filed as cell-based. On the procedure: The bacterial endotoxin content of the deglycosylated mIFN-α4 stock solution was determined by the Limulus reagent method as lower than 60 EU/mg. specific activity was determined as 5.4×10^8 U/mg by using the commercial mIFN-α4 (R&D, catalog number 12115-1) as the standard, and by using the mouse fibroblast/encephalomyocarditis virus (L929/EMCV) cytopathic inhibition method.
The bacterial endotoxin content of the PEG-mIFN-α4 stock solution was determined by the Limulus reagent method as lower than 15 EU/mg. Specific activity was determined as 6.1×10^6 U/mg by using the commercial mIFN-α4 (R&D, catalog number 12115-1) as the standard, and by using the mouse fibroblast/encephalomyocarditis virus (L929/EMCV) cytopathic inhibition method.
For orientation: Damage to the host cells serves as the signal in cytopathic effect assays.

B1: PEG-mIFN-α4: deglycosylated recombinant mouse interferon α4 modified with 40 kD Y-type polyethylene glycol (YPEG-NHS); SEQ ID NO: 6 (protein)
chain: CDLPHTYNLGNKRALTVLEEMRRLPPLSCLKDRKDFGFPLEKVDNQQIQKAQAILVLRDLTQQILNLFTSKDLSATWNATLLDSFCNDLHQQLNDLKACVMQEPPLTQEDSLLAVRTYFHRITVYLRKKKHSLCAWEVIRAEVWRALSSSTNLLARLSEEKE
modifications: 40 kD Y-type PEG; deglycosylated; amino acid sequence of peginterferon murine 4
For the molecule B1, the Individual blood concentration in data set [1] (collected at 96 h, individual mice 1-5, single s.c. 1 μg/mouse) worked out at 87.5 ng/mL. Also, in data set [1] (mouse, in vivo, sc), the “Cl_F—obs” value amounted to 0.07 mL/h, the T1/2 was 28.3 h, the Tmax is 24 h and the “Vz_F—obs” value stood at 2.91 mL. In data set [2] (continuous administration: once every 48 hours, 55 times), the “Mean survival period (days post tumor inoculation)” value was 53.5 days. In data set [2] (intermittent administration: 1 μg/mouse every 48 h x3, withdrawal 144 h, 11 rounds), the “Mean survival period (days post tumor inoculation)” value is recorded as 89.0 days. The Mortality in data set [3] (continuous administration (once every 48 hours, 25 times)) was 87.5% and 58.3%. The Mortality in data set [3] (intermittent administration (every 48 h x3, withdrawal 144 h, 5 rounds)) was determined as 87.5%. The Specific activity in data set [4] is recorded as 6.1×10^6 U/mg.

What is called Tmax is the time from dosing to the highest level.
